According to patent US20120087931A1:
Several values for one entry are separate records, joined by “and”; a condition that tells them apart may be missing. Equal values may be shown once. One block for each substance: values may come before it.

How the values were obtained:
[1] = target: theta antigen on BW mouse tumor cells; assay: staining of BW mouse cells transfected with theta (method not given)
[2] = target: membrane Hsp70 on mouse tumor cells (mouse) (UniProt Q61696); assay: flow cytometry, cultured CT26 cells; antibody not named
Sequence of UniProt Q61696 (Q61696 2-641): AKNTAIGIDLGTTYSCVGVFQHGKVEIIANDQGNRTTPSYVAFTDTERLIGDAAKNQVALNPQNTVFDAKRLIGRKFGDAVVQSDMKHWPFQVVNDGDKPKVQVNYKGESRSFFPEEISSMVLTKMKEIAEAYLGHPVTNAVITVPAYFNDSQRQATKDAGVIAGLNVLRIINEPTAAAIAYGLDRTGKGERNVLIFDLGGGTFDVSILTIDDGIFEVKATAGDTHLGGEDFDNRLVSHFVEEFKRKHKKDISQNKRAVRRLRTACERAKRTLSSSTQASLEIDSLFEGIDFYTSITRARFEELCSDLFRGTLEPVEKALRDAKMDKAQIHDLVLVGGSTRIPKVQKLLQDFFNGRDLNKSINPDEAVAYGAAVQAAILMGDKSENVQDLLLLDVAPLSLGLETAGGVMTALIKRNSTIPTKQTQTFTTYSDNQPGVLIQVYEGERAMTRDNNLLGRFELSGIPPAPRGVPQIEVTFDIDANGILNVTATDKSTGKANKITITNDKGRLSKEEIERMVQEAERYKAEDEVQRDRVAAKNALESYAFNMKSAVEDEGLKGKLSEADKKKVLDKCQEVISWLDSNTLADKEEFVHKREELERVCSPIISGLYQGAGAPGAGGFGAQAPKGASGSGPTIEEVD

[3] = target: purified human Hsp70 protein (human) (UniProt P0DMV8); assay: SPR, Biacore X, 25 C, Hsp70 0.78-50 nM, global fit to a 1:1 model
Sequence of UniProt P0DMV8 (P0DMV8 whole entry): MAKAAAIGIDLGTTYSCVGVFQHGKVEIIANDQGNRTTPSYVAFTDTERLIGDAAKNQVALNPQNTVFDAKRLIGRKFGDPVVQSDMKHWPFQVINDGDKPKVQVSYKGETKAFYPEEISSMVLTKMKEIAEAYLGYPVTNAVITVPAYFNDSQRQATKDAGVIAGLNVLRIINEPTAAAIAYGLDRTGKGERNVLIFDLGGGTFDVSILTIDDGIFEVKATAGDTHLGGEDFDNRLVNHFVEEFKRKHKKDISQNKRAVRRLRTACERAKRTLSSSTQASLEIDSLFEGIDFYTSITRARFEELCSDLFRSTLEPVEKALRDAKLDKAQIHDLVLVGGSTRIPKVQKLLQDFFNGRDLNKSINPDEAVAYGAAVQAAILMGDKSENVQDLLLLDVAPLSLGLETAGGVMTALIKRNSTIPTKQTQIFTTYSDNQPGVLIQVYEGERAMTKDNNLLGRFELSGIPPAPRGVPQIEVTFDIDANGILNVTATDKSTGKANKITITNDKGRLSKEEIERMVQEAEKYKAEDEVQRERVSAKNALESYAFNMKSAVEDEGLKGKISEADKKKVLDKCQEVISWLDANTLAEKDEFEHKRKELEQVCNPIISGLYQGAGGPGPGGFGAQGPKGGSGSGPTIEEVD

[4] = target: membrane Hsp70 on mouse tumor cells (mouse) (UniProt Q61696); assay: flow cytometry, CT26 cells used as ADCC targets (FIG. 9B)
[5] = target: membrane Hsp70 on mouse tumor cells (mouse) (UniProt Q61696); assay: cell-based or functional assay
[6] = target: membrane Hsp70 on mouse tumor cells (mouse) (UniProt Q61696); assay: flow cytometry at 4 C, CT26 cells, cmHsp70.1-FITC 5 µg/mL without peptide
[7] = target: membrane Hsp70 on mouse tumor cells (mouse) (UniProt Q61696); assay: flow cytometry at 4 C, viable 1048 (BALB/c) pancreatic carcinoma cells (counted as membrane Hsp70 negative, limit 15%)
[8] = target: membrane Hsp70 on mouse tumor cells (mouse) (UniProt Q61696); assay: flow cytometry, single cell suspensions of CT26 tumors from mice on day 14; antibody not named
[9] = target: membrane Hsp70 on mouse tumor cells (mouse) (UniProt Q61696); assay: flow cytometry at 4 C, viable MOS162 (C3H) osteosarcoma cells
[10] = target: membrane Hsp70 on mouse tumor cells (mouse) (UniProt Q61696); assay: flow cytometry at 4 C, viable B16/F10 (C57/Bl6) melanoma cells
[11] = target: membrane Hsp70 on mouse tumor cells (mouse) (UniProt Q61696); assay: flow cytometry at 4 C, viable ADJ (BALB/c) plasmocytoma cells
[12] = target: membrane Hsp70 on mouse tumor cells (mouse) (UniProt Q61696); assay: flow cytometry, cmHsp70.1-FITC on viable CT26 mouse colon carcinoma cells; IgG1 isotype control as white histogram
[13] = target: membrane Hsp70 on mouse tumor cells (mouse) (UniProt Q61696); assay: flow cytometry, CT26 cells from tissue culture; antibody not named
[14] = target: membrane Hsp70 on mouse tumor cells (mouse) (UniProt Q61696); assay: flow cytometry, CT26 cells used as ADCC targets (FIG. 8)
[15] = target: membrane Hsp70 on mouse tumor cells (mouse) (UniProt Q61696); assay: flow cytometry, CT26 cells used as ADCC targets (FIG. 9A)
[16] = target: membrane Hsp70 on mouse tumor cells (mouse) (UniProt Q61696); assay: flow cytometry, single-cell suspensions of CT26 tumors from mice on day 14; antibody not named
[17] = target: membrane Hsp70 on mouse tumor cells (mouse) (UniProt Q61696); assay: flow cytometry at 4 C, viable CT26 (BALB/c) colon carcinoma cells
[18] = target: membrane Hsp70 on mouse tumor cells (mouse) (UniProt Q61696); assay: flow cytometry at 4 C, viable A20 (BALB/c) B cell lymphoma cells (counted as membrane Hsp70 negative, limit 15%)
[19] = target: monoclonal antibody cmHsp70.1 as produced by hybridoma cmHsp70.1 (DSM ACC2629); assay: flow cytometry at 4 C, CT26 cells, cmHsp70.1-FITC 5 µg/mL plus TKD 25 µg/mL
[20] = target: monoclonal antibody cmHsp70.1 as produced by hybridoma cmHsp70.1 (DSM ACC2629); assay: flow cytometry at 4 C, CT26 cells, cmHsp70.1-FITC 5 µg/mL plus TKD 12.5 µg/mL

positive cells (%) [1]: 56%
Substance: IgG1 O×7.11 mAb (antibody)

membrane Hsp70+ cells (%) [2]: 46.2%
Kd [3]: 5.4 nM
koff [3]: 0.000379 s⁻¹
kon [3]: 69900 M⁻¹ s⁻¹
cmHsp70.1+ cells (%) [4]: 61%
ADCC against CT26 tumor cells (4 h 51Cr release, unstimulated mouse spleen cells) [5]: 1.4 µg/mL
membrane Hsp70+ cells (%) [6]: 59% and 60%
Hsp70 membrane positive cells (%) [8]: 79.8%
Hsp70 membrane positive cells (%) [13]: 56.2%
Hsp70 membrane-positive cells (%) [14]: 55%
membrane Hsp70+ cells (%) [15]: 60%
membrane Hsp70+ cells (%) [16]: 69.8%
Substance: monoclonal antibody cmHsp70.1 as produced by hybridoma cmHsp70.1 (DSM ACC2629)
Hsp70 membrane-positive cells (%) [7]: 12%
Hsp70 membrane-positive cells (%) [9]: 70%
Hsp70 membrane-positive cells (%) [10]: 97%
Hsp70 membrane-positive cells (%) [11]: 45%
positive cells in the marker gate [12]: 59%
Hsp70 membrane-positive cells (%) [17]: 44%
Hsp70 membrane-positive cells (%) [18]: 5%

membrane Hsp70+ cells (%) left in the presence of the peptide [19]: < 15%
membrane Hsp70+ cells (%) left in the presence of the peptide [20]: 44%
Substance: 14-mer Hsp70 peptide TKD (…)
